Assay results as given in patent publication US20230357447A1 (JANUX THERAPEUTICS, published 2023).

Key:
[1] = target: T1, anti-CD28 scFv (VH-linker 1-VL) (biotinylated (site not stated)); experiment: phage ELISA; scFv wells pre-incubated with soluble CD28 (competitor);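 note: crude clonal phage supernatants added to wells pretreated with soluble CD28 in blocking buffer, bound phage read via HRP-linked anti-M13 antibody, reference wells got blocking buffer only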
T1 construct: Captured as biotinylated scFv on neutravidin coated plates in the phage ELISA

[2] = target: T2, Anti-CD28 scFv (VH-linker 1-VL) (biotinylated (site not stated)); experiment: phage binding ELISA on captured biotinylated anti-CD28 scFv;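 note: crude clonal phage supernatants applied to the wells, bound phage read out with an HRP-conjugated anti-M13 antibody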
T2 construct: biotinylated and captured on neutravidin coated plates in the phage ELISA

[3] = target: T2, Anti-CD28 scFv (VH-linker 1-VL); experiment: phage binding ELISA on captured anti-CD28 scFv, wells pre-incubated with soluble CD28 (competitor);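 note: crude clonal phage supernatants added without washing, bound phage detected by HRP-conjugated anti-M13 antibody, control wells held blocking buffer alone instead of CD28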
Description: Clonal phage were harvested as crude supernatants and screened via standard enzyme linked immunosorbent assays (ELISAs). […] Prior to the addition of clonal phage, wells were incubated with blocking buffer and CD28 soluble protein or blocking buffer alone. Without washing or aspirating, clonal phage supernatants were then added to the wells and incubated for a short time. Wells were then washed followed by detection of bound phage using a horse radish peroxidase conjugated anti-M13 antibody.

T2 sequence (scFv, as listed by the source): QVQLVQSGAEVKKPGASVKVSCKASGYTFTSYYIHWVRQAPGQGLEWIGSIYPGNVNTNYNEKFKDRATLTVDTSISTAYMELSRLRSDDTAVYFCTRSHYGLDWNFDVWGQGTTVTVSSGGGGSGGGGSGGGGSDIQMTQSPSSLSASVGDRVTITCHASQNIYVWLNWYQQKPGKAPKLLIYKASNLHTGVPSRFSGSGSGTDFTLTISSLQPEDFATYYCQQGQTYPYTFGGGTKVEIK
T1 sequence (scFv, as listed by the source): as above

Binder	CD28 scFv signal in presence of CD28 [1]	CD28 scFv signal [2]	CD28 scFv signal in presence of CD28 [3]
MDWCPRYLWNVCFA (on phage (pIII fusion)) [Phage-289 clonal phage peptide]	0.28	–	–
MDWCPRHLWDECFN [Phage-341]	–	1.98	0.268
MDWCPRHLWIECFN [Phage-322]	–	2.21	0.376
MDWCPRHLWDECFY [Phage-331]	–	2.13	0.146
MDWCPRYLWLECFN [Phage-354]	–	1.69	0.368
MDWCPRHLWLECFN [Phage-387]	–	0.066	0.074
MDWCPTYLWNVCFA [Phage-323]	–	2.21	0.132
MDWCPRHLWYECFS [Phage-324]	–	2.17	0.163
MDWCPAYLWDECFA [Phage-325]	–	2.17	0.163
MFWCPITLWNECFN [Phage-326]	–	2.15	0.143
MHWCPRDLWHVCFN [Phage-327]	–	2.15	0.15
MDWCPRALWDHCFN [Phage-328]	–	2.15	0.293
MDWCPRALWNVCFA [Phage-329]	–	2.14	0.249
MDWCPRFLWDVCFN [Phage-330]	–	2.14	0.309
IDWCPRALWDACLA [Phage-332]	–	2.1	0.164
MDWCPTDLWHECFA [Phage-333]	–	2.07	0.154
MDWCPRYLWDECFS [Phage-334]	–	2.06	0.164
MDWCPRFLWDYCFA [Phage-335]	–	2.03	0.207
MDWCPRDLWNWCFN [Phage-336]	–	2.03	0.39

Binder	CD28 scFv signal in presence of CD28 [1]	CD28 scFv signal [2]	CD28 scFv signal in presence of CD28 [3]
MDWCPKPLWHVCFA [Phage-337]	–	2.02	0.152
MDWCPRFLWNECFY [Phage-338]	–	2	0.287
MDWCPRTLWDQCFF [Phage-339]	–	1.99	0.314
MSWCPIDLWSECFA [Phage-340]	–	1.99	0.148
MDWCPRNLWHECFA [Phage-342]	–	1.97	0.175
MDWCPMNLWHECFA [Phage-351]	–	1.74	0.16
MDWCPRPLWHECFA [Phage-359]	–	1.44	0.138
MDWCPRDLWTQCFF [Phage-343]	–	1.93	0.119
MDWCPRHLWVHCFS [Phage-344]	–	1.91	0.173
MDFCPRFLWHECFN [Phage-345]	–	1.91	0.225
MDWCPRHLWHACFS [Phage-346]	–	1.83	0.167
MDWCPLFLWDQCFN [Phage-347]	–	1.82	0.264
MAWCPWYLWDECFN [Phage-348]	–	1.81	0.267
LDWCPRHLWALCFN [Phage-349]	–	1.78	0.24
MDWCPWFLWNECFN [Phage-350]	–	1.77	0.279
MDWCPIHLWYECFN [Phage-352]	–	1.73	0.203
IDWCPLHLWHECYH [Phage-353]	–	1.69	0.182
MDWCPMYLWDECFF [Phage-356]	–	1.65	0.178
MDWCPRLLWHECFN [Phage-357]	–	1.6	0.109

Binder	CD28 scFv signal in presence of CD28 [1]	CD28 scFv signal [2]	CD28 scFv signal in presence of CD28 [3]
MDWCPPHLWHECFF [Phage-358]	–	1.45	–
MDWCPMFLWHECFS [Phage-360]	–	1.44	0.193
MHWCPRHLWSECFN [Phage-361]	–	1.43	0.478
MDWCPRILWHECFS [Phage-362]	–	1.39	0.174
MNWCPMHLWAECFN [Phage-363]	–	1.39	0.14
MDWCPRSLWAQCFY [Phage-364]	–	1.39	0.14
MDWCPSYLWPVCFN [Phage-365]	–	1.18	0.131
MHWCPLYLWDECFY [Phage-366]	–	1.16	0.376
MDWCPSFLWYECFN [Phage-367]	–	1.13	0.104
MSWCPPYLWTVCYN [Phage-368]	–	1.1	0.326
MHWCPRDLWYECFA [Phage-369]	–	0.995	0.108
MTWCPAYLWHECFN [Phage-370]	–	0.985	0.139
MDWCPRYLWVDCFA [Phage-372]	–	0.917	0.218
MDWCPSDMWANCFF [Phage-389]	–	–	0.316
IDWCPMHMWDFCYN [Phage-390]	–	–	0.232
LHWCPTSMWTYCYY [Phage-392]	–	–	2.46
MDWCPSNMWNECFF [Phage-416]	–	0.983	–
VDWCPAHMWNECYN [Phage-419]	–	0.664	–
